The results in this text go back to doi:10.1101/2025.08.11.669711 (2025).

In one assay the target is T1, UCH37•RPN13^DEUBAD (UniProt Q16186 253-407).
T1 chain 1: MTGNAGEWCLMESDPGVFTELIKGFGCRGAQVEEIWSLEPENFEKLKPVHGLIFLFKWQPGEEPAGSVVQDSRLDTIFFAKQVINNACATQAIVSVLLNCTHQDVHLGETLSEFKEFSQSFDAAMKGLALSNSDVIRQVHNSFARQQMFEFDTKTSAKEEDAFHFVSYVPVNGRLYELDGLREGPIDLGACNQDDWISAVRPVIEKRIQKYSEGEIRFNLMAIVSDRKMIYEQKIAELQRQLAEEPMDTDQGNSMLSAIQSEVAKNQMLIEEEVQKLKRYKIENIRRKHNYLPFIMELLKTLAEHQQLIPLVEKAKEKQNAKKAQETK
T1 chain 2: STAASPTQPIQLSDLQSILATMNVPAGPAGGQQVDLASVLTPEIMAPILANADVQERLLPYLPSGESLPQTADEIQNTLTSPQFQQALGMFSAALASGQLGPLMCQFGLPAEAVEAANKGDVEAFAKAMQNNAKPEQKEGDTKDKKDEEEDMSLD
Briefly: MST.

A further assay concerns the target T2, UCH37.
T2 chain: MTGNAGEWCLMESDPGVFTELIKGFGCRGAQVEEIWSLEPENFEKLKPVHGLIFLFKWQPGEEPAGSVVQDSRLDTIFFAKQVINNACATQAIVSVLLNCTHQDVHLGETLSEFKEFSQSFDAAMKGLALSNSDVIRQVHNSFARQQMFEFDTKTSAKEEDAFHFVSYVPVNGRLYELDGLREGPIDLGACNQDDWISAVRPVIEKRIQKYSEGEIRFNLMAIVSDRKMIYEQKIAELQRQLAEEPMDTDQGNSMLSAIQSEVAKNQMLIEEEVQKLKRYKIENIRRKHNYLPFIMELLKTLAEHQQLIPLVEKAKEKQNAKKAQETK
Briefly: SPR. (In general: Surface plasmon resonance follows binding to a sensor surface in real time, without labels.)

B1: Nb-cS1 (His-tagged) (VHH)
VHH: QVQLQESGGGLVQAGGSLRLSCAASGYISRPRTMGWYRQAPGKEREFVAIISNGAITNYADSVKGRFTISRDNAKNTVYLQMNSLKPEDTAVYYCAAGRNIWHAYWGQGTQVTVSS
Turning to B1, the affinity in the assay with UCH37•RPN13^DEUBAD, expressed as Kd, was 199 nM.

B2: Nb-ncS1 (His-tagged) (VHH)
VHH: RVQLQESGGGLVQAGGSLRLSCAASGYIFRSYRMGWYRQAPGKERELVAAIGLGGNTYYADSVKGRFTISRDNAKNTVYQQMNSLKPEDTAVYYCAALYGKPPAFSPFPYWGQGTQVTVSS
Consider B2, for which the koff (usually a measure of how fast the partners let go of each other) in the assay with UCH37 is 3.9e-05 s⁻¹.

B3: Nb-v1 (recombinant) (VHH)
VHH: QVQLQESGGGLVQAGGSLRLSCAASGYIFRSYRMGWYRQAPGKERELVAAIGLGGNTYYADSVKGRFTISRDNAKNTVYLQMNSLKPEDTAVYYCAALHGKPPAFSPFAYWGQGTQVTVSS
In the assay with UCH37, B3 displayed a koff of 0.00013 s⁻¹.
